Assay results reported in patent US20260167699A1 (Chugai, published 2026).

molecular target: T1, FcγRIIIa extracellular domain, C-terminal His tag (human, UniProt P08637 17-208); test: SPR, binding activity relative to GpH7-A5/GpH7-B3/GpL16-k0 (=100)
T1 construct: extracellular domain; also called 3a
T1 sequence (P08637 other isoform, or with tags, fused parts or gaps): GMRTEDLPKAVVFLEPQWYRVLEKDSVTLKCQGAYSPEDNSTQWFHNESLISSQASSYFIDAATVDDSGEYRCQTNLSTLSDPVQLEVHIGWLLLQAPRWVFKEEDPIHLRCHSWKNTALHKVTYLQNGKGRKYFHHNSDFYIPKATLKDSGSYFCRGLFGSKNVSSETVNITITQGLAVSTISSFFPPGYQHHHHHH

Row | Binder | He/Con 3a
1 | GpH7-A5/GpH7-B3 variant S267_02A/GpL16-k0 (antibody, human IgG1, kappa, He Ab; copies: 1 + 1 + 2) heavy 1: not shown heavy 2: not shown light: DIVMTQSPLSLPVTPGEPASISCQASESLVHSNRNTYLHWYLQKPGQSPQLLIYKVSNRFSGVPDRFSGSGSGTDFTLKISRVEAEDVGVYYCSQNTHVPPTFGQGTKVEIERTVAAPSVFIFPPSDEQLKSGTASVVCLLNNFYPREAKVQWKVDNALQSGNSQESVTEQDSKDSTYSLSSTLTLSKADYEKHKVYACEVTHQGLSSPVTKSFNRGEC | 149%
2 | GpH7-A5/GpH7-B3 variant S267_18N/GpL16-k0 (antibody, human IgG1, kappa, He Ab; copies: 1 + 1 + 2) heavy 1: not shown heavy 2: not shown light: DIVMTQSPLSLPVTPGEPASISCQASESLVHSNRNTYLHWYLQKPGQSPQLLIYKVSNRFSGVPDRFSGSGSGTDFTLKISRVEAEDVGVYYCSQNTHVPPTFGQGTKVEIERTVAAPSVFIFPPSDEQLKSGTASVVCLLNNFYPREAKVQWKVDNALQSGNSQESVTEQDSKDSTYSLSSTLTLSKADYEKHKVYACEVTHQGLSSPVTKSFNRGEC | 52%
3 | GpH7-A5/GpH7-B3 variant S267_06M/GpL16-k0 (antibody, human IgG1, kappa, He Ab; copies: 1 + 1 + 2) heavy 1: not shown heavy 2: not shown light: DIVMTQSPLSLPVTPGEPASISCQASESLVHSNRNTYLHWYLQKPGQSPQLLIYKVSNRFSGVPDRFSGSGSGTDFTLKISRVEAEDVGVYYCSQNTHVPPTFGQGTKVEIERTVAAPSVFIFPPSDEQLKSGTASVVCLLNNFYPREAKVQWKVDNALQSGNSQESVTEQDSKDSTYSLSSTLTLSKADYEKHKVYACEVTHQGLSSPVTKSFNRGEC | 65.3%
4 | GpH7-A5/GpH7-B3 variant S298_01G/GpL16-k0 (antibody, human IgG1, kappa, He Ab; copies: 1 + 1 + 2) heavy 1: not shown heavy 2: not shown light: DIVMTQSPLSLPVTPGEPASISCQASESLVHSNRNTYLHWYLQKPGQSPQLLIYKVSNRFSGVPDRFSGSGSGTDFTLKISRVEAEDVGVYYCSQNTHVPPTFGQGTKVEIERTVAAPSVFIFPPSDEQLKSGTASVVCLLNNFYPREAKVQWKVDNALQSGNSQESVTEQDSKDSTYSLSSTLTLSKADYEKHKVYACEVTHQGLSSPVTKSFNRGEC | 74.9%
5 | GpH7-A5/GpH7-B3 variant S267_09D/GpL16-k0 (antibody, human IgG1, kappa, He Ab; copies: 1 + 1 + 2) heavy 1: not shown heavy 2: not shown light: DIVMTQSPLSLPVTPGEPASISCQASESLVHSNRNTYLHWYLQKPGQSPQLLIYKVSNRFSGVPDRFSGSGSGTDFTLKISRVEAEDVGVYYCSQNTHVPPTFGQGTKVEIERTVAAPSVFIFPPSDEQLKSGTASVVCLLNNFYPREAKVQWKVDNALQSGNSQESVTEQDSKDSTYSLSSTLTLSKADYEKHKVYACEVTHQGLSSPVTKSFNRGEC | 179%
6 | GpH7-A5/GpH7-B3 variant S298_03V/GpL16-k0 (antibody, human IgG1, kappa, He Ab; copies: 1 + 1 + 2) heavy 1: not shown heavy 2: not shown light: DIVMTQSPLSLPVTPGEPASISCQASESLVHSNRNTYLHWYLQKPGQSPQLLIYKVSNRFSGVPDRFSGSGSGTDFTLKISRVEAEDVGVYYCSQNTHVPPTFGQGTKVEIERTVAAPSVFIFPPSDEQLKSGTASVVCLLNNFYPREAKVQWKVDNALQSGNSQESVTEQDSKDSTYSLSSTLTLSKADYEKHKVYACEVTHQGLSSPVTKSFNRGEC | 103%
7 | GpH7-A5/GpH7-B3 variant S267_19Q/GpL16-k0 (antibody, human IgG1, kappa, He Ab; copies: 1 + 1 + 2) heavy 1: not shown heavy 2: not shown light: DIVMTQSPLSLPVTPGEPASISCQASESLVHSNRNTYLHWYLQKPGQSPQLLIYKVSNRFSGVPDRFSGSGSGTDFTLKISRVEAEDVGVYYCSQNTHVPPTFGQGTKVEIERTVAAPSVFIFPPSDEQLKSGTASVVCLLNNFYPREAKVQWKVDNALQSGNSQESVTEQDSKDSTYSLSSTLTLSKADYEKHKVYACEVTHQGLSSPVTKSFNRGEC | 64.3%
8 | GpH7-A5/GpH7-B3 variant S267_10E/GpL16-k0 (antibody, human IgG1, kappa, He Ab; copies: 1 + 1 + 2) heavy 1: not shown heavy 2: not shown light: DIVMTQSPLSLPVTPGEPASISCQASESLVHSNRNTYLHWYLQKPGQSPQLLIYKVSNRFSGVPDRFSGSGSGTDFTLKISRVEAEDVGVYYCSQNTHVPPTFGQGTKVEIERTVAAPSVFIFPPSDEQLKSGTASVVCLLNNFYPREAKVQWKVDNALQSGNSQESVTEQDSKDSTYSLSSTLTLSKADYEKHKVYACEVTHQGLSSPVTKSFNRGEC | 90.9%
9 | GpH7-A5/GpH7-B3 variant S298_02A/GpL16-k0 (antibody, human IgG1, kappa, He Ab; copies: 1 + 1 + 2) heavy 1: not shown heavy 2: not shown light: DIVMTQSPLSLPVTPGEPASISCQASESLVHSNRNTYLHWYLQKPGQSPQLLIYKVSNRFSGVPDRFSGSGSGTDFTLKISRVEAEDVGVYYCSQNTHVPPTFGQGTKVEIERTVAAPSVFIFPPSDEQLKSGTASVVCLLNNFYPREAKVQWKVDNALQSGNSQESVTEQDSKDSTYSLSSTLTLSKADYEKHKVYACEVTHQGLSSPVTKSFNRGEC | 151%

Continued, values first:

Row | He/Con 3a | Binder
10 | 51.4% | GpH7-A5/GpH7-B3 variant S298_18N/GpL16-k0 (antibody, human IgG1, kappa, He Ab; copies: 1 + 1 + 2) heavy 1: not shown heavy 2: not shown light: DIVMTQSPLSLPVTPGEPASISCQASESLVHSNRNTYLHWYLQKPGQSPQLLIYKVSNRFSGVPDRFSGSGSGTDFTLKISRVEAEDVGVYYCSQNTHVPPTFGQGTKVEIERTVAAPSVFIFPPSDEQLKSGTASVVCLLNNFYPREAKVQWKVDNALQSGNSQESVTEQDSKDSTYSLSSTLTLSKADYEKHKVYACEVTHQGLSSPVTKSFNRGEC
11 | 69.2% | GpH7-A5/GpH7-B3 variant S298_08L/GpL16-k0 (antibody, human IgG1, kappa, He Ab; copies: 1 + 1 + 2) heavy 1: not shown heavy 2: not shown light: DIVMTQSPLSLPVTPGEPASISCQASESLVHSNRNTYLHWYLQKPGQSPQLLIYKVSNRFSGVPDRFSGSGSGTDFTLKISRVEAEDVGVYYCSQNTHVPPTFGQGTKVEIERTVAAPSVFIFPPSDEQLKSGTASVVCLLNNFYPREAKVQWKVDNALQSGNSQESVTEQDSKDSTYSLSSTLTLSKADYEKHKVYACEVTHQGLSSPVTKSFNRGEC
12 | 87.2% | GpH7-A5/GpH7-B3 variant S298_06M/GpL16-k0 (antibody, human IgG1, kappa, He Ab; copies: 1 + 1 + 2) heavy 1: not shown heavy 2: not shown light: DIVMTQSPLSLPVTPGEPASISCQASESLVHSNRNTYLHWYLQKPGQSPQLLIYKVSNRFSGVPDRFSGSGSGTDFTLKISRVEAEDVGVYYCSQNTHVPPTFGQGTKVEIERTVAAPSVFIFPPSDEQLKSGTASVVCLLNNFYPREAKVQWKVDNALQSGNSQESVTEQDSKDSTYSLSSTLTLSKADYEKHKVYACEVTHQGLSSPVTKSFNRGEC
13 | 70.6% | GpH7-A5/GpH7-B3 variant S298_19Q/GpL16-k0 (antibody, human IgG1, kappa, He Ab; copies: 1 + 1 + 2) heavy 1: not shown heavy 2: not shown light: DIVMTQSPLSLPVTPGEPASISCQASESLVHSNRNTYLHWYLQKPGQSPQLLIYKVSNRFSGVPDRFSGSGSGTDFTLKISRVEAEDVGVYYCSQNTHVPPTFGQGTKVEIERTVAAPSVFIFPPSDEQLKSGTASVVCLLNNFYPREAKVQWKVDNALQSGNSQESVTEQDSKDSTYSLSSTLTLSKADYEKHKVYACEVTHQGLSSPVTKSFNRGEC
14 | 90.7% | GpH7-A5/GpH7-B3 variant S298_07I/GpL16-k0 (antibody, human IgG1, kappa, He Ab; copies: 1 + 1 + 2) heavy 1: not shown heavy 2: not shown light: DIVMTQSPLSLPVTPGEPASISCQASESLVHSNRNTYLHWYLQKPGQSPQLLIYKVSNRFSGVPDRFSGSGSGTDFTLKISRVEAEDVGVYYCSQNTHVPPTFGQGTKVEIERTVAAPSVFIFPPSDEQLKSGTASVVCLLNNFYPREAKVQWKVDNALQSGNSQESVTEQDSKDSTYSLSSTLTLSKADYEKHKVYACEVTHQGLSSPVTKSFNRGEC
15 | 106% | GpH7-A5/GpH7-B3 variant S298_14T/GpL16-k0 (antibody, human IgG1, kappa, He Ab; copies: 1 + 1 + 2) heavy 1: not shown heavy 2: not shown light: DIVMTQSPLSLPVTPGEPASISCQASESLVHSNRNTYLHWYLQKPGQSPQLLIYKVSNRFSGVPDRFSGSGSGTDFTLKISRVEAEDVGVYYCSQNTHVPPTFGQGTKVEIERTVAAPSVFIFPPSDEQLKSGTASVVCLLNNFYPREAKVQWKVDNALQSGNSQESVTEQDSKDSTYSLSSTLTLSKADYEKHKVYACEVTHQGLSSPVTKSFNRGEC
16 | 80.6% | GpH7-A5/GpH7-B3 variant S298_15Y/GpL16-k0 (antibody, human IgG1, kappa, He Ab; copies: 1 + 1 + 2) heavy 1: not shown heavy 2: not shown light: DIVMTQSPLSLPVTPGEPASISCQASESLVHSNRNTYLHWYLQKPGQSPQLLIYKVSNRFSGVPDRFSGSGSGTDFTLKISRVEAEDVGVYYCSQNTHVPPTFGQGTKVEIERTVAAPSVFIFPPSDEQLKSGTASVVCLLNNFYPREAKVQWKVDNALQSGNSQESVTEQDSKDSTYSLSSTLTLSKADYEKHKVYACEVTHQGLSSPVTKSFNRGEC
17 | 52.1% | GpH7-A5/GpH7-B3 variant S298_12R/GpL16-k0 (antibody, human IgG1, kappa, He Ab; copies: 1 + 1 + 2) heavy 1: not shown heavy 2: not shown light: DIVMTQSPLSLPVTPGEPASISCQASESLVHSNRNTYLHWYLQKPGQSPQLLIYKVSNRFSGVPDRFSGSGSGTDFTLKISRVEAEDVGVYYCSQNTHVPPTFGQGTKVEIERTVAAPSVFIFPPSDEQLKSGTASVVCLLNNFYPREAKVQWKVDNALQSGNSQESVTEQDSKDSTYSLSSTLTLSKADYEKHKVYACEVTHQGLSSPVTKSFNRGEC
18 | 50% | GpH7-A5/GpH7-B3 variant S298_11K/GpL16-k0 (antibody, human IgG1, kappa, He Ab; copies: 1 + 1 + 2) heavy 1: not shown heavy 2: not shown light: DIVMTQSPLSLPVTPGEPASISCQASESLVHSNRNTYLHWYLQKPGQSPQLLIYKVSNRFSGVPDRFSGSGSGTDFTLKISRVEAEDVGVYYCSQNTHVPPTFGQGTKVEIERTVAAPSVFIFPPSDEQLKSGTASVVCLLNNFYPREAKVQWKVDNALQSGNSQESVTEQDSKDSTYSLSSTLTLSKADYEKHKVYACEVTHQGLSSPVTKSFNRGEC
19 | 114% | GpH7-A5/GpH7-B3 variant S324_01G/GpL16-k0 (antibody, human IgG1, kappa, He Ab; copies: 1 + 1 + 2) heavy 1: not shown heavy 2: not shown light: DIVMTQSPLSLPVTPGEPASISCQASESLVHSNRNTYLHWYLQKPGQSPQLLIYKVSNRFSGVPDRFSGSGSGTDFTLKISRVEAEDVGVYYCSQNTHVPPTFGQGTKVEIERTVAAPSVFIFPPSDEQLKSGTASVVCLLNNFYPREAKVQWKVDNALQSGNSQESVTEQDSKDSTYSLSSTLTLSKADYEKHKVYACEVTHQGLSSPVTKSFNRGEC
20 | 77.6% | GpH7-A5/GpH7-B3 variant S298_04F/GpL16-k0 (antibody, human IgG1, kappa, He Ab; copies: 1 + 1 + 2) heavy 1: not shown heavy 2: not shown light: DIVMTQSPLSLPVTPGEPASISCQASESLVHSNRNTYLHWYLQKPGQSPQLLIYKVSNRFSGVPDRFSGSGSGTDFTLKISRVEAEDVGVYYCSQNTHVPPTFGQGTKVEIERTVAAPSVFIFPPSDEQLKSGTASVVCLLNNFYPREAKVQWKVDNALQSGNSQESVTEQDSKDSTYSLSSTLTLSKADYEKHKVYACEVTHQGLSSPVTKSFNRGEC
21 | 71.9% | GpH7-A5/GpH7-B3 variant S298_16H/GpL16-k0 (antibody, human IgG1, kappa, He Ab; copies: 1 + 1 + 2) heavy 1: not shown heavy 2: not shown light: DIVMTQSPLSLPVTPGEPASISCQASESLVHSNRNTYLHWYLQKPGQSPQLLIYKVSNRFSGVPDRFSGSGSGTDFTLKISRVEAEDVGVYYCSQNTHVPPTFGQGTKVEIERTVAAPSVFIFPPSDEQLKSGTASVVCLLNNFYPREAKVQWKVDNALQSGNSQESVTEQDSKDSTYSLSSTLTLSKADYEKHKVYACEVTHQGLSSPVTKSFNRGEC
22 | 62.7% | GpH7-A5/GpH7-B3 variant S298_09D/GpL16-k0 (antibody, human IgG1, kappa, He Ab; copies: 1 + 1 + 2) heavy 1: not shown heavy 2: not shown light: DIVMTQSPLSLPVTPGEPASISCQASESLVHSNRNTYLHWYLQKPGQSPQLLIYKVSNRFSGVPDRFSGSGSGTDFTLKISRVEAEDVGVYYCSQNTHVPPTFGQGTKVEIERTVAAPSVFIFPPSDEQLKSGTASVVCLLNNFYPREAKVQWKVDNALQSGNSQESVTEQDSKDSTYSLSSTLTLSKADYEKHKVYACEVTHQGLSSPVTKSFNRGEC
